Consider one molecule from paper PMC3530171 (Cell, 2012).

In the assay the target is recombinant His-Mdm2 (UniProt P23804 1-489). Briefly: pull-down.
Chain of recombinant His-Mdm2 (P23804 whole entry): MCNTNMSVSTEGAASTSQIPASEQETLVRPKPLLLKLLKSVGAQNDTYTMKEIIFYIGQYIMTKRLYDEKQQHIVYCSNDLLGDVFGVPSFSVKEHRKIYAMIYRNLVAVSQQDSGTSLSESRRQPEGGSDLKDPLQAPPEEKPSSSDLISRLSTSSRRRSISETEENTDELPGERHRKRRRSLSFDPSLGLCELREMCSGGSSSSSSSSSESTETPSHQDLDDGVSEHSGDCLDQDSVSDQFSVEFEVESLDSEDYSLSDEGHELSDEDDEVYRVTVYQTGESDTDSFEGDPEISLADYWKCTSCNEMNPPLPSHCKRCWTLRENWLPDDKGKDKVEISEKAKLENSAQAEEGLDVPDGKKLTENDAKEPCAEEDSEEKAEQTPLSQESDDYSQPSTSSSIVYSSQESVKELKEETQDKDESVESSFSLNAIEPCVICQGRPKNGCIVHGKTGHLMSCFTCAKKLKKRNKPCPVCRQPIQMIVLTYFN

B1: recombinant GST-EF1α (natural protein)
chain: GKEKTHINIVVIGHVDSGKSTTTGHLIYKCGGIDKRTIEKFEKEAAEMGKGSFKYAWVLDKLKAERERGITIDISLWKFETSKYYVTIIDAPGHRDFIKNMITGTSQADCAVLIVAAGVGEFEAGISKNGQTREHALLAYTLGVKQLIVGVNKMDSTEPPYSQKRYEEIVKEVSTYIKKIGYNPDTVAFVPISGWNGDNMLEPSANMPWFKGWKVTRKDGNASGTTLLEALDCILPPTRPTDKPLRLPLQDVYKIGGIGTVPVGRVETGVLKPGMVVTFAPVNVTTEVKSVEMHHEALSEALPGDNVGFNVKNVSVKDVRRGNVAGDSKNDPPMEAAGFTAQVIILNHPGQISAGYAPVLDCHTAHIACKFAELKEKIDRRSGKKLEDGPKFLKSGDAAIVDMVPGKPMCVESFSDYPPLGRFAVRDMRQTVAVGVIKAVDKKAAGAGKVTKSAQKAQKAK
In the case of B1, the “stoichiometry N” value is ~1.

As a reminder, the stoichiometry N is a count of units in the complex or per binding partner.
